Experimental data published in the Human Domainome abundance scans (Beltran et al. 2025).

B1: Glucocorticoid receptor, residues 419 to 494; numbered along this chain, P04150 (parent)
chain: KLCLVCSDEASGCHYGVLTCGSCKVFFKRAVEGQHNYLCAGRNDCIIDKIRRKNCPACRYRKCLQAGMNLEARKTK

Variants of: B1
Assay: abundance fitness (aPCA) (normalised: wild type 0, dead -1); higher = more abundant; growth selection in yeast, the domain comes from the species named
Conditions: Homo sapiens

Abundance fitness: each site, then its substitutions
C6: S -1.22, E -0.941, T -1.14, A -0.964, Y -0.653, R -0.852, G -0.934, I -0.751, V -1.06, P -0.931, K -1.01, Q -0.805, L -0.992, W -1.03
S11: C -0.102, P -0.096, G -0.076, E 0.054, A -0.043, K -0.005, F -0.127, V -0.005, H 0.008, Q 0.047, Y -0.174, M -0.015, N 0.018, D 0.021, L 0.033, W -0.236
L2: H -0.002, V -0.02, M -0.024, Y 0.14, C -0.068, K 0.063, S -0.023, N 0.092, I 0.114, D -0.045, F 0.069, G -0.017, E 0.049, R 0.032, Q 0.029, P -0.39
Y15: V -0.208, G -0.096, H -0.088, T -0.05, D -0.055, Q -0.08, R -0.152, W 0.008, A -0.085, M -0.009, L -0.164, E -0.067, I -0.298, P -0.134, N 0.004, C -0.153
C13: H 0.112, K -0.018, D -0.008, M -0.027, V 0.015, G -0.154, W -0.055, I 0.112, R -0.025, L -0.007, E 0.04, F -0.005, P -0.07, T 0.003, Q 0.001, A -0.02, S -0.037
L18: N -0.1, D 0.062, E -0.045, V 0, T -0.031, I 0.035, F -0.002, W -0.01, S 0.038, G -0.191, R -0.036, P -0.004, A 0.097, Q -0.087, H -0.012, Y 0.098, K -0.088, M -0.077
H14: V -0.367, S -0.076, A -0.077, C -0.128, Q -0.077, P -0.24, F -0.088, Y -0.068, D -0.016, T -0.161, R -0.137, I -0.184, K -0.096, M -0.163, N -0.086, L -0.125, G -0.187, E -0.102
S7: T -0.02, M -0.06, L -0.017, Q 0.029, A 0.098, I -0.725, C -0.046, W -0.115, H 0.021, N -0.111, G 0.012, R -0.048, D 0, Y -0.109, P -0.757, V -0.374, E 0.012, K 0.032, F -0.045
G12: R -0.074, D -0.003, A -0.101, M -0.071, T -0.069, E -0.057, L -0.166, H -0.096, K -0.08, Y -0.206, P -0.318, V -0.166, N -0.093, F -0.083, C -0.194, S -0.063, W -0.153, Q -0.034
C20: Q -1.04, V -1.11, N -0.75, A -0.837, M -0.651, Y -0.782, G -0.805, L -1.14, I -1.11, F -0.717, K -0.948, W -0.78, H -0.918, P -0.594, S -1.4, T -0.87
G21: Y -0.031, E 0.076, N -0.15, K 0.008, P -0.008, I -0.088, L -0.037, R -0.086, T -0.031, M -0.032, H -0.122, D -0.009, Q 0.13, S -0.023, C -0.064
V17: C 0.057, F -0.355, W -0.641, H -0.371, G -0.176, S -0.172, K -0.013, L -0.16, M -0.379, Y -0.451, D -0.405, P -0.215, R -0.141, Q -0.194, E -0.389, I 0.129
C3: S -0.728, M -0.763, Q -0.686, K -0.823, I -0.684, N -0.67, H -0.737, V -1.13, F -0.719, E -0.787, Y -0.764, R -0.771, W -0.879, P -0.84, T -0.818, L -0.918, D -0.653
D8: R -0.237, T -0.195, S -0.034, I -0.68, C -0.105, Y -0.409, K -0.27, W -0.521, E -0.033, N -0.147, H -0.203, M -0.216, A 0.037, Q -0.035, V -0.219, L -0.646
E9: F -0.115, M 0.042, I -0.038, K 0.105, R 0.04, C 0.083, Q -0.017, N 0.12, V 0.031, T 0.089, L 0.036, Y -0.105, W 0.062, P 0.074, H -0.052, S 0.032, D -0.015
A10: N -0.274, C -0.147, K -0.408, P 0.004, L -0.066, Q -0.111, S -0.079, E -0.287, H -0.235, T -0.161, V -0.305, W -0.625, G -0.122, Y -0.272, F -0.362, I -0.15, D -0.251, R -0.453
G16: C -0.483, D -0.078, H -0.291, K -0.295, E -0.251, M -0.369, V -0.738, Q -0.225, N 0, S -0.182, R -0.318, L -0.558, T -0.264, W -0.83, P -0.302, A -0.216
V5: W -0.952, C -0.749, I -0.007, P -1.1, M -0.681, R -0.669, N -0.703, L -0.611, Y -0.631, G -0.732, T -0.742, S -1.03, F -0.874, H -0.848, E -0.96, K -1.15
T19: M -0.176, E -1.03, P -0.791, V -0.011, W -0.743, Q -0.559, S 0.034, I -0.057, L -0.184, Y -0.697, H -0.311, A -0.031, G -0.393, C 0.061, N -0.557, D -0.909, R -0.929
L4: P -0.098, S -0.026, G -0.03, A -0.096, T 0.004, K 0.109, D 0.035, V -0.052, E 0.024, N -0.01, C 0.016, R 0.017, Q 0.047, F -0.024, Y -0.029, H -0.141, M 0.001, W -0.068
